According to publication PMC6969876, “NADPH biosensor-based identification of an alcohol dehydrogenase variant with improved catalytic properties caused by a single charge reversal at the protein surface” (AMB Express, 2020):
Numbering of substitutions follows the chain as printed. Numbers in names are those of the source.

B1: LbADH (Levilactobacillus brevis) (protein)
chain: SNRLDGKVAIITGGTLGIGLAIATKFVEEGAKVMITGRHSDVGEKAAKSVGTPDQIQFFQHDSSDEDGWTKLFDATEKAFGPVSTLVNNAGIAVNKSVEETTTAEWRKLLAVNLDGVFFGTRLGIQRMKNKGLGASIINMSSIEGFVGDPSLGAYNASKGAVRIMSKSAALDCALKDYDVRVNTVHPGYIKTPLVDDLPGAEEAMSQRTKTPMGHIGEPNDIAYICVYLASNESKFATGSEFVVDGGYTAQ
B2: LbADH (Levilactobacillus brevis; K72E) (protein)
chain: B1 chain with K71E

Assays:
[1] = substrate: COC(=O)CC(C)=O; assay: purified protein; type: biochemical, Levilactobacillus brevis; details: 0.3 mM NADPH, 1 mM MgCl2, 50 mM TEA pH 7.0, 30 °C
[2] = substrate: CC(=O)CCC(C)=O; assay: purified protein; type: biochemical, Levilactobacillus brevis; details: 0.3 mM NADPH, 1 mM MgCl2, 50 mM TEA pH 7.0, 30 °C

| Protein | Km [1] [µM] | Vmax [1] [µmol/min/mg] | Km [2] [µM] | Vmax [2] [µmol/min/mg] |
| --- | --- | --- | --- | --- |
| B1 | 1130 ± 60 | 154 | 5100 ± 600 | 148 |
| B2 | 670 ± 40 | 221 | 4300 ± 500 | 173 |
